Residue numbers refer to the chain shown, from its start. Names may count otherwise.

The test system of one assay is TNAP-/- mice. Nature of the assay: Administration of exogenous pyridoxal HCl to TNAP-/- mice. In kind it is in vivo, mouse. The text has this: At the time that we were developing the TNAP knock-out mice, Waymire et al. (Nature Genet. 11:45-51, 1995) independently reported the production of TNAP knock-out mice. […] These studies provided support to the hypothesis, set forth by Michael P. Whyte in his studies of human hypophosphatasia, that pyridoxal-5′-phosphate (vitamin B6) might be a natural substrate of TNAP. The rationale for this hypothesis is that pyridoxal-5′-phosphate cannot easily traverse biological membranes but that the related, more hydrophobic derivatives, pyridoxal and pyridoxamine can do so with much better kinetics. Thus, the presumption is that the cells that are deficient in TNAP cannot dephosphorylate pyridoxal-5′-phosphate on the outside of the cells leading to an intracellular deficiency of Vitamin B6 (Whyte, Endocrine Rev. 15:439-461, 1994). […] Control mice fed a vitamin B6-depleted diet developed epileptic seizures indistinguishable from those observed in TNAP−/− mice, abnormal apoptosis in the thymus and thinning of the nerve roots.

Assay [1] concerns wild-type osteoblastic cells. Kind of assay: Predicted effect of factors expressed or delivered on PPi and mRNA expression. In kind it is cell-based, mouse. The source says: In order to test the hypothesis that PPi itself represents the signaling molecule that influences the transcription of the TNAP, PC-1 and ANK genes, we examine the levels of TNAP, PC-1 and ANK in calvarial tissue and osteoblasts from the mutant mouse lines and in the rescued mouse strains and by measure mRNA for TNAP, PC-1 and ANK by Northern blot analysis. Subsequently, cells from the different mutant strains and rescued mice are exposed to medium with different concentrations of PPi, or non-hydrolyzable analogues (phosphocitrate and the biphosphonate etidronate), for various time points and tested for changes in mRNA levels of the three genes. In addition, in vitro cytoplasmic and nuclear microinjection of PPi and analogues into osteoblastic cells are performed to examine the effect of intracellular PPi on these same genes. Measurements of mRNA changes are monitored by real-time RT-PCR using an ABI 7700 Sequence Detection system to facilitate these measurements.
These evaluations are done on osteoblastic cells from the different mutant mice and cross-bred strains with or without rescue of the deficient molecule after specifically transfecting the respective cDNAs back into the deficient cells. As a control for the transfections, we employ mutant enzyme-deficient PC-1 (Johnson et al., J. Bone Miner. Res. 14:883-892, 1999; Johnson et al., Arthritis Rheum. 42:1986-1997, 1999), mutant ANK (Ho et al., Science 289:265-270, 2000), and mutant enzyme-deficient TNAP (Wennberg et al., J. Bone Mineral Res., 2000). The table summarizes the experiments to be performed and the results that are expected.

For a further assay, the system named is TNAP ko osteoblasts. Nature of the assay: Mineralization of bone nodules in primary TNAP ko osteoblast cultures (von Kossa). In kind it is cell-based, mouse. Conditions: added to the ko osteoblast culture medium. The procedure:
Primary cultures of osteoblasts were isolated from calvariae of 1-4 day old pups that were hybrids of C57Bl/6×129/J mouse strains with wild-type, heterozygote and homozygote TNAP null genotypes. Isolation was performed by a slightly modified version of the time sequential collagenase technique described by Boonekamp et al. (Proc. Kon. Ned. Akad. Wet. B87:371-382, 1984). In brief, calvariae of the same genotype were pooled and three 10 minute incubations in 4 mM EDTA, 137 mM NaCl, 2.7 mM KCl, 3 mM NaH2PO4, pH 7.2, were performed, followed by seven 10 minute digestions in EDTA-free buffer, containing 180 units/ml collagenase type II (Worthington Biochemical Corporation, Lakewood, N.J.). All isolations were performed at 37° C. in a shaking water bath. The last five collagenase digestions, containing an enriched cell population of osteoblastic phenotype, were pooled and seeded at 4×10^4 cells/cm^2 in αMEM (Gibco BRL, Grand Island, N.Y.), containing 10% heat-inactivated FCS, penicillin (50 U/ml) and streptomycin ([…]).
To study mineralization, we used conditions under which we observed that osteoblasts normally formed von Kossa stain positive and alizarin red positive nodules at 7-10 days in culture. In brief, primary calvarial osteoblasts were cultured in complete αMEM media as described above, supplemented with β-glycerophosphate (10 mM) every third day and L-ascorbic acid (50 μg/ml) daily. MC3T3-E1 cells (Johnson et al., J. Bone Min. Res. 14:883-892, 1999) were maintained in the same medium, and for each experiment were plated at 80% confluence (1×10^6 cells in a 10 cm tissue-culture plastic dish in 5 ml) and received β-glycerophosphate and L-ascorbic acid as for primary osteoblasts above.
To evaluate the ability of primary osteoblasts to form and mineralize bone nodules in vitro, wild-type (wt), heterozygous and knock-out (ko) osteoblasts were cultured in media supplemented with ascorbic acid, using β-glycerophosphate as phosphate source. […] The extent of bone mineral deposition in these cultures was confirmed by quantifications of deposited calcium. […]

As to `Cc1ncc(CO)c(C=O)c1O.Cl` [pyridoxal HCl], in the assay with TNAP-/- mice, the episodes of apnea result is on record as “episodes of apnea ceased”; the “hypomineralization and accumulation of osteoid” value is given as “continued to worsen with age”; the life span result is “increased the life span”; the “myelinization of lumbar nerve roots” value is listed as “improved”. In addition, the “onset of epileptic attacks” value in the assay with TNAP-/- mice is “delayed the onset of epileptic attacks”.

For the molecule “ANK: factor expressed in wild-type osteoblastic cells by transfecting the cDNA (Table 1)”, in assay [1], the “Predicted effect on PPi, Extracellular” value is reported as “⇑”; the “Predicted effect on PPi, Intracellular” value is recorded as “↓”; the “Predicted effect on mRNA expression, ANK” value was “↓”; the “Predicted effect on mRNA expression, TNAP” value (from here on “Predicted effect … TNAP”) is “⇑”.

B1: PC-1: factor expressed in wild-type osteoblastic cells by transfecting the cDNA (Table 1) (protein)
chain: MERDGDQAGHGPRHGSAGNGRELESPAAASLLAPMDLGEEPLEKAERARPAKDPNTYKVLSLVLSVCVLTTILGCIFGLKPSCAKEVKSCKGRCFERTFSNCRCDAACVSLGNCCLDFQETCVEPTHIWTCNKFRCGEKRLSRFVCSCADDCKTHNDCCINYSSVCQDKKSWVEETCESIDTPECPAEFESPPTLLFSLDGFRAEYLHTWGGLLPVISKLKNCGTYTKNMRPMYPTKTFPNHYSIVTGLYPESHGIIDNKMYDPKMNASFSLKSKEKFNPLWYKGQPIWVTANHQEVKSGTYFWPGSDVEIDGILPDIYKVYNGSVPFEERILAVLEWLQLPSHERPHFYTLYLEEPDSSGHSHGPVSSEVIKALQKVDRLVGMLMDGLKDLGLDKCLNLILISDHGMEQGSCKKYVYLNKYLGDVNNVKVVYGPAARLRPTDVPETYYSFNYEALAKNLSCREPNQHFRPYLKPFLPKRLHFAKSDRIEPLTFYLDPQWQLALNPSERKYCGSGFHGSDNLFSNMQALFIGYGPAFKHGAEVDSFENIEVYNLMCDLLGLIPAPNNGSHGSLNHLLKKPIYNPSHPKEEGFLSQCPIKSTSNDLGCTCDPWIVPIKDFEKQLNLTTEDVDDIYHMTVPYGRPRILLKQHHVCLLQQQQFLTGYSLDLLMPLWASYTFLRNDQFSRDDFSNCLYQDLRIPLSPVHKCSYYKSNSKLSYGFLTPPRLNRVSNHIYSEALLTSNIVPMYQSFQVIWHYLHDTLLQRYAHERNGINVVSGPVFDFDYDGRYDSLEILKQNSRVIRSQEILIPTHFFIVLTSCKQLSETPLECSALESSAYILPHRPDNIESCTHGKRESSWVEELLTLHRARVTDVELITGLSFYQDRQESVSELLRLKTHLPIFSQED
In the case of B1, in assay [1], the “Predicted effect on PPi, Extracellular” value is “⇑”; the “Predicted effect on PPi, Intracellular” value was “⇑”; the “Predicted effect on mRNA expression, PC-1” value (“Predicted effect … PC-1” below) is listed as “↓”; the “Predicted effect … TNAP” value was “⇑”.

B2: iPPiase: inorganic pyrophosphatase, factor expressed in wild-type osteoblastic cells (Table 1) (protein, UniProt Q15181 2-289, looked up)
Inorganic pyrophosphatase: SGFSTEERAAPFSLEYRVFLKNEKGQYISPFHDIPIYADKDVFHMVVEVPRWSNAKMEIATKDPLNPIKQDVKKGKLRYVANLFPYKGYIWNYGAIPQTWEDPGHNDKHTGCCGDNDPIDVCEIGSKVCARGEIIGVKVLGILAMIDEGETDWKVIAINVDDPDAANYNDINDVKRLKPGYLEATVDWFRRYKVPDGKPENEFAFNAEFKDKDFAIDIIKSTHDHWKALVTKKTNGKGISCMNTTLSESPFKCDPDAARAIVDALPPPCESACTVPTDVDKWFHHQKN
In the case of B2, in assay [1], the “Predicted effect on PPi, Extracellular” value is given as “=”; the “Predicted effect on PPi, Intracellular” value is recorded as “↓”; the “Predicted effect on mRNA expression, ANK” value was “⇑”; the “Predicted effect … PC-1” value is reported as “⇑”. Moreover, the “Predicted effect … TNAP” value in assay [1] is listed as “↓”.

B3: TNAP: factor expressed in wild-type osteoblastic cells by transfecting the cDNA (Table 1) (protein)
chain: FVPEKERDPSYWRQQAQETLKNALKLQKLNTNVAKNVIMFLGDGMGVSTVTAARILKGQLHHNTGEETRLEMDKFPFVALSKTYNTNAQVPDSAGTATAYLCGVKANEGTVGVSAATERTRCNTTQGNEVTSILRWAKDAGKSVGIVTTTRVNHATPSAAYAHSADRDWYSDNEMPPEALSQGCKDIAYQLMHNIKDIDVIMGGGRKYMYPKNRTDVEYELDEKARGTRLDGLDLISIWKSFKPRHKHSHYVWNRTELLALDPSRVDYLLGLFEPGDMQYELNRNNLTDPSLSEMVEVALRILTKNLKGFFLLVEGGRIDHGHHEGKAKQALHEAVEMDQAIGKAGAMTSQKDTLTVVTADHSHVFTFGGYTPRGNSIFGLAPMVSDTDKKPFTAILYGNGPGYKVVDGERENVSMVDYAHNNYQAQSAVPLRHETHGGEDVAVFAKGPMAHLLHGVHEQNYIPHVMAYASCIGANLDHCAWAG
B3: in assay [1], the “Predicted effect on PPi, Extracellular” value was “↓”; the “Predicted effect on PPi, Intracellular” value was “↓”; the “Predicted effect on mRNA expression, ANK” value is on record as “⇑”; the “Predicted effect … PC-1” value is “⇑”.

B4: heat-inactivated recombinant TNAP: heat-inactivated recombinant TNAP (protein, UniProt P05186 18-501, looked up)
Alkaline phosphatase, …: LVPEKEKDPKYWRDQAQETLKYALELQKLNTNVAKNVIMFLGDGMGVSTVTAARILKGQLHHNPGEETRLEMDKFPFVALSKTYNTNAQVPDSAGTATAYLCGVKANEGTVGVSAATERSRCNTTQGNEVTSILRWAKDAGKSVGIVTTTRVNHATPSAAYAHSADRDWYSDNEMPPEALSQGCKDIAYQLMHNIRDIDVIMGGGRKYMYPKNKTDVEYESDEKARGTRLDGLDLVDTWKSFKPRYKHSHFIWNRTELLTLDPHNVDYLLGLFEPGDMQYELNRNNVTDPSLSEMVVVAIQILRKNPKGFFLLVEGGRIDHGHHEGKAKQALHEAVEMDRAIGQAGSLTSSEDTLTVVTADHSHVFTFGGYTPRGNSIFGLAPMLSDTDKKPFTAILYGNGPGYKVVGGERENVSMVDYAHNNYQAQSAVPLRHETHGGEDVAVFSKGPMAHLLHGVHEQNYVPHVMAYAACIGANLGHCAPAS
modifications: heat-inactivated
On to B4, for which the induction of mineralization entry in the assay with TNAP ko osteoblasts was “neither heat-inactivated recombinant TNAP, nor enzymatically inactive mutants of TNAP, such as [R54C]TNAP or [V365I]TNAP, were able to induce mineralization”.

B5: [R54C]TNAP: enzymatically inactive mutant of TNAP (protein, UniProt P05186 18-501, looked up, variant R54C)
Alkaline phosphatase, …: B4 Alkaline phosphatase, … with R54C
On to B5, for which the induction of mineralization result with TNAP ko osteoblasts is “nor enzymatically inactive mutants of TNAP, such as [R54C]TNAP or [V365I]TNAP, were able to induce mineralization”.

B6: [V365I]TNAP: enzymatically inactive mutant of TNAP (protein, UniProt P05186 18-501, looked up, variant V365I)
Alkaline phosphatase, …: B4 Alkaline phosphatase, … with V365I
Consider B6, for which the induction of mineralization result in the assay on TNAP ko osteoblasts was “nor enzymatically inactive mutants of TNAP, such as [R54C]TNAP or [V365I]TNAP, were able to induce mineralization”.
